Measurements published in paper PMC4919469 (2016).
Values belong to the binder of their own block, whether it stands above or below them.

Key:
Cdc42Δ7Q61L [1] = target: T1, Cdc42Δ7Q61L (human, UniProt P60953 1-184, Q61L); assay: direct SPA, GTP-bound Cdc42
Cdc42Δ7Q61L [2] = target: T1, Cdc42Δ7Q61L; assay: competition SPA vs GST-WASP GBD
Target sequence in this assay (P60953 1-184 Q61L): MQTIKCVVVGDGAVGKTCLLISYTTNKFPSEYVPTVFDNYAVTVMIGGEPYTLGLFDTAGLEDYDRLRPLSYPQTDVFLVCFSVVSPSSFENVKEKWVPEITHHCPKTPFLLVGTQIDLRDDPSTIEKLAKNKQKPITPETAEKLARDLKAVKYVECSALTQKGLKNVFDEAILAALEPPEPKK

Cdc42Δ7Q61L [3] = target: T1, Cdc42Δ7Q61L; assay: direct SPA, GTP-bound Cdc42; remark: listed apart in the source

B2: N-WASP G protein-binding domain (GBD) (residues 197–255) (domain or fragment)
chain: KKKLTKADIGTPSNFQHIGHVGWDPNTGFDVNNLDPELKKLFDLCGISEAQLKDKETSK
Kd (Cdc42Δ7Q61L [2]): 16 nM

B3: His-SNAP-TOCA1 ΔSH3 (residues 1–480) (domain or fragment)
chain: MSWGTELWDQFDNLEKHTQWGIDFLDKYAKFVKERLEIEQNYAKQLRNLVKKYCPKRSAKDEEPRFTSCLSFYNILNELNDYAGQREVVAEEMGHRVYAEIMRYSNDIKGERKSHLQEGRKAQQYLDMCLKQMDNSKRKFERECREAEKAQQTYERLDNDSNATKSDVEKAKQQLHLRTHMADESKNEYAAQLQNYNAEQHKHFYIVIPQVYKHLQEMDERRTVKLSECYKGFADAERKVIPIISKCLEGMVQAAKSVDERRDSQIVVDCFKSGFEPNGDYPFEDYSQHIYRTVSDGTISTPKQESLKPDPRVTVGKAKGKLWLFGKKPKGPALEDFSHLPPEQRRKRLQQRIDELSRELQKEMDQKDALNKMKDVYEKNPQMGDPSSLHPKIAETTSNIERLRMEIHKNEAWLSEVEGKVSQRSERRHSAEANHLVAQGRESPEGSYTEDANQEGRVQPQPHAHPEFDDEFDDDEPLPA
Kd (Cdc42Δ7Q61L [1]): > 1000 nM

B5: GST-ACK GBD (domain or fragment)
chain: GLSAQDISQPLQNSFIHTGHGDSDPRHCWGFPDRIDELYLGN
Kd (Cdc42Δ7Q61L [1]): 46 nM

Next, values leading:

Kd (Cdc42Δ7Q61L [1]): > 1000 nM
B1: His-SNAP-TOCA1 (full-length X. tropicalis TOCA1) (natural protein)
chain: MSWGTELWDQFDNLEKHTQWGIDFLDKYAKFVKERLEIEQNYAKQLRNLVKKYCPKRSAKDEEPRFTSCLSFYNILNELNDYAGQREVVAEEMGHRVYAEIMRYSNDIKGERKSHLQEGRKAQQYLDMCLKQMDNSKRKFERECREAEKAQQTYERLDNDSNATKSDVEKAKQQLHLRTHMADESKNEYAAQLQNYNAEQHKHFYIVIPQVYKHLQEMDERRTVKLSECYKGFADAERKVIPIISKCLEGMVQAAKSVDERRDSQIVVDCFKSGFEPNGDYPFEDYSQHIYRTVSDGTISTPKQESLKPDPRVTVGKAKGKLWLFGKKPKGPALEDFSHLPPEQRRKRLQQRIDELSRELQKEMDQKDALNKMKDVYEKNPQMGDPSSLHPKIAETTSNIERLRMEIHKNEAWLSEVEGKVSQRSERRHSAEANHLVAQGRESPEGSYTEDANQEGRVQPQPHAHPEFDDEFDDDEPLPAIGHCKSLYPFDGNNEGTLAMKEGEVLYIIEEDKGDGWTRARKQNGEEGYVPTSYIDITLEKNSKGAVTYI

Kd (Cdc42Δ7Q61L [3]): 60 nM
B4: GST-PAK (domain or fragment)
chain: ISLPSDFEHTIHVGFDAVTGEFTGMPEQWARLLQTSNITKSEQK
